Experimental findings from publication PMC7666581, “Atypical chemoreceptor arrays accommodate high membrane curvature” (Nature Communications, 2020) are described below.

Data set [1] addresses T1, CheW-CheRlike (CheW-Rlike) (Treponema denticola, UniProt F7IUZ1).
T1 construct: gene cheW-1; full-length fusion: N-terminal CheW domain, 28-residue linker, C-terminal CheR-like domain; poly-His tag (pET28a), E. coli BL21(DE3); mainly monomer
T1 sequence (F7IUZ1 1-444): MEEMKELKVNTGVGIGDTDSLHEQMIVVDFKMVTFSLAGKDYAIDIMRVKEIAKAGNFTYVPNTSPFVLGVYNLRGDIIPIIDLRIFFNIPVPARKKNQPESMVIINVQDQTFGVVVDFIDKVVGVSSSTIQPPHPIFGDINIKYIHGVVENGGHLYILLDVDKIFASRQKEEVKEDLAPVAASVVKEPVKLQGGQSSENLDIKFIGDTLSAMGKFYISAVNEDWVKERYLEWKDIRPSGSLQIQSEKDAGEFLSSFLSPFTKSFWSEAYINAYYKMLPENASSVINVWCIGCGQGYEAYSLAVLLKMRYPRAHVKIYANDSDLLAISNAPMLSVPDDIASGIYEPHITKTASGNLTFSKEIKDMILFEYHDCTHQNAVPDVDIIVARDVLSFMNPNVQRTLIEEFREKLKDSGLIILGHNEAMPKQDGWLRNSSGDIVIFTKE
Briefly: isothermal titration calorimetry. In kind it is binding. On the technique in general: Isothermal titration calorimetry measures the heat released or taken up as one component is titrated into another.

For a further data set, the target named is T2, CheR (classical Td CheR) (Treponema denticola, UniProt Q73PZ7).
T2 construct: purified CheR; cloning and tag not described in main text; printed residues R79, Gly152, Val180, Y218
T2 sequence (Q73PZ7 1-271): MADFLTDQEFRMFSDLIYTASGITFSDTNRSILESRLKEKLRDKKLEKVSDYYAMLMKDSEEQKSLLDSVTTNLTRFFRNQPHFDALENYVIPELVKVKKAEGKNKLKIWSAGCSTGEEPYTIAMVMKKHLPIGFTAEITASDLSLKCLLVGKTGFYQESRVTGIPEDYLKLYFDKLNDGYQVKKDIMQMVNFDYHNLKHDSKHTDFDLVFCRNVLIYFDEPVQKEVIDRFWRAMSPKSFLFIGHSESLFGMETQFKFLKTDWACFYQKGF
Briefly: isothermal titration calorimetry. Type of data set: binding.

Data set [2] concerns the target Treponema denticola histidine kinase CheA (Treponema denticola) (UniProt O85747). Briefly: SEC-MALS; 25 °C; each sample 10 mg/mL; 50 mM MOPS pH 7.5, 150 mM KCl, 5 mM MgCl2; mixed sample 1:1 molar CheA:CheW-R_(like); CheW-R_(like) pre-incubated 15 min with 5 mM DTT; GE S200 Increase (10/300). Background: Size exclusion chromatography separates by hydrodynamic size, large species first.

Data set [3] concerns the molecule itself. Kind of data set: crystal structure; isolated P3 domain at 32 mg/ml, hanging drop, 0.1 M Imidazole pH 7.0, 25% PEG 400; data cut off at 1.5 Å.
Data set [4] deals with the molecule itself. Kind of data set: SEC-MALS; 25 °C; each sample 10 mg/mL; 50 mM MOPS pH 7.5, 150 mM KCl, 5 mM MgCl2; mixed sample 1:1 molar CheA:CheW-R_(like); CheW-R_(like) pre-incubated 15 min with 5 mM DTT; GE S200 Increase (10/300).

On to `C[S+](CC[C@H](N)C(=O)O)C[C@H]1O[C@@H](n2cnc3c(N)ncnc32)[C@H](O)[C@@H]1O` (some centres unmarked) [S-adenosylmethionine], for which the Kd is 8.8 ± 1.9 µM in data set [1] and 20 ± 3.7 µM on CheR (classical Td CheR).

In data set [2], “Treponema denticola CheW-CheR_(like) protein (TDE1492) (natural protein)” gave a stoichiometry N (CheW-R subunit per CheA dimer) of 1.

B1: Treponema denticola CheA P3 domain (dimerization domain) (domain or fragment)
chain: SILRVDANRIDYLLNLVSETVITKASLNQSTIEFAELYDKFQNSSTIYKDKTRRLLDKMPEYLEKIQQGYDINSIKQDVLNEYSSLLEVFGDFDSLMKAAVTKFKSSSQNLGRISGELQEGVMKIRMVP
notes: P3 (dimerization) domain of Treponema denticola CheA, with about 50 additional residues joining the canonical P3 helices; Cloned NdeI/EcoRI into pet28a; The printed residue number Tyr83 probably counts on the deposited construct and not on whole CheA; also called Td P3 domain; isolated P3 domain; source: E. coli BL21-DE3, purified (Nickel-NTA, size exclusion)
For B1, the binding result in data set [3] was “binds”.

B2: Treponema denticola histidine kinase CheA (enzyme, UniProt O85747 1-801, looked up)
chain: MSDYLDINNEELLKDFFSEAEQQVEILESNVLVIEQNPEDRNSIDEIFRAAHTLKGGSATVEMLELSKFTHAMEDLLDEIRSGSVKVTGETVDLLLKSIDIIKLMLDARASGSIYSDDVSGIVNQLRSFIPAKAEKKSSKASAPKVSIPASVSPVSAPKVQASASNLDIKDYFSEYEILELAETIQKGEDLYAVIVKFDESNLMNSVGGIQVFAALKDYGSVLKTVPDFDALYEDEFHETVIYFLSSASDSKILEKAAFIGDVTLSASAERLDIKDKTPESPKPAKAAPAQSAPEASVSEVKVSEKTEEKPVQESKEQPSKPEKKQSQTSPQGSGHSSGSILRVDANRIDYLLNLVSETVITKASLNQSTIEFAELYDKFQNSSTIYKDKTRRLLDKMPEYLEKIQQGYDINSIKQDVLNEYSSLLEVFGDFDSLMKAAVTKFKSSSQNLGRISGELQEGVMKIRMVPISQIFSRFPRVVRDLSRDLNKNVQLVIEGEDTELDKSVVEDLLDPIMHCVRNSLDHGVESPEVRKGLGKPEQGILLLKASNEGNMIVIEVADDGHGIDVEAVKQKAVERGILHPNKSLTDVEAFQLVFAPGFSTSKTISSVSGRGVGLDVVKTHIEKLNGTVMVESEPNVGTRFIIKLPLTLAIIQGLLIRVGDEVYSIPITSVIESHRVKPDEINRIDNYEVFNVRDEVYSLLRLNRLFGITSAETDDDGYNYIVVVGTEEKKVGLMVDSLIGEEAVVIKPLKDQFTNSPGIAGASILGDGSVSLIIDVAQLLELGLKQEMQARERREASIW
notes: Histidine kinase CheA of Treponema denticola ATCC 35405, the only CheA homolog in the genome; amplified from Td genomic DNA; Cloned NdeI/BamHI into pet28a; co-transcribed with TDE1492; also called Td CheA; CheA-F2; source: E. coli BL21-DE3, purified (Nickel-NTA, size exclusion)
Regarding B2, the “stoichiometry N” value in data set [4] turned out to be 2.

As usually defined, the Kd is a measure of binding affinity in units of concentration. A higher Kd goes with lower affinity. The term stoichiometry N denotes a count of units in the complex or per binding partner.
